Assay results reported in patent US9284543B2, “Neutral active soluble truncated PH20 polypeptides and uses thereof” (Halozyme, Inc., priority 2008, dated 2016).

B1: SPAM1-VCID: C-terminally truncated human PH20, precursor 466 aa (SEQ ID NO:34), mature 431 aa (SEQ ID NO:86) (protein, listed as Homo sapiens)
chain 1: MGVLKFKHIFFRSFVKSSGVSQIVFTFLLIPCCLTLNFRAPPVIPNVPFLWAWNAPSEFCLGKFDEPLDMSLFSFIGSPRINATGQGVTIFYVDRLGYYPYIDSITGVTVNGGIPQKISLQDHLDKAKKDITFYMPVDNLGMAVIDWEEWRPTWARNWKPKDVYKNRSIELVQQQNVQLSLTEATEKAKQEFEKAGKDFLVETIKLGKLLRPNHLWGYYLFPDCYNHHYKKPGYNGSCFNVEIKRNDDLSWLWNESTALYPSIYLNTQQSPVAATLYVRNRVREAIRVSKIPDAKSPLPVFAYTRIVFTDQVLKFLSQDELVYTFGETVALGASGIVIWGTLSIMRSMKSCLLLDNYMETILNPYIINVTLAAKMCSQVLCQEQGVCIRKNWNSSDYLHLNPDNFAIQLEKGGKFTVRGKPTLEDLEQFSEKFYCSCYSTLSCKEKADVKDTDAVDVCIADGVCID
chain 2: LNFRAPPVIPNVPFLWAWNAPSEFCLGKFDEPLDMSLFSFIGSPRINATGQGVTIFYVDRLGYYPYIDSITGVTVNGGIPQKISLQDHLDKAKKDITFYMPVDNLGMAVIDWEEWRPTWARNWKPKDVYKNRSIELVQQQNVQLSLTEATEKAKQEFEKAGKDFLVETIKLGKLLRPNHLWGYYLFPDCYNHHYKKPGYNGSCFNVEIKRNDDLSWLWNESTALYPSIYLNTQQSPVAATLYVRNRVREAIRVSKIPDAKSPLPVFAYTRIVFTDQVLKFLSQDELVYTFGETVALGASGIVIWGTLSIMRSMKSCLLLDNYMETILNPYIINVTLAAKMCSQVLCQEQGVCIRKNWNSSDYLHLNPDNFAIQLEKGGKFTVRGKPTLEDLEQFSEKFYCSCYSTLSCKEKADVKDTDAVDVCIADGVCID
modifications: HuPH20 precursor 1-466; Mature HuPH20 36-466
B2: SPAM1-DAFL: C-terminally truncated human PH20, precursor 469 aa (SEQ ID NO:31), mature 434 aa (SEQ ID NO:83) (protein, listed as Homo sapiens)
chain 1: MGVLKFKHIFFRSFVKSSGVSQIVFTFLLIPCCLTLNFRAPPVIPNVPFLWAWNAPSEFCLGKFDEPLDMSLFSFIGSPRINATGQGVTIFYVDRLGYYPYIDSITGVTVNGGIPQKISLQDHLDKAKKDITFYMPVDNLGMAVIDWEEWRPTWARNWKPKDVYKNRSIELVQQQNVQLSLTEATEKAKQEFEKAGKDFLVETIKLGKLLRPNHLWGYYLFPDCYNHHYKKPGYNGSCFNVEIKRNDDLSWLWNESTALYPSIYLNTQQSPVAATLYVRNRVREAIRVSKIPDAKSPLPVFAYTRIVFTDQVLKFLSQDELVYTFGETVALGASGIVIWGTLSIMRSMKSCLLLDNYMETILNPYIINVTLAAKMCSQVLCQEQGVCIRKNWNSSDYLHLNPDNFAIQLEKGGKFTVRGKPTLEDLEQFSEKFYCSCYSTLSCKEKADVKDTDAVDVCIADGVCIDAFL
chain 2: LNFRAPPVIPNVPFLWAWNAPSEFCLGKFDEPLDMSLFSFIGSPRINATGQGVTIFYVDRLGYYPYIDSITGVTVNGGIPQKISLQDHLDKAKKDITFYMPVDNLGMAVIDWEEWRPTWARNWKPKDVYKNRSIELVQQQNVQLSLTEATEKAKQEFEKAGKDFLVETIKLGKLLRPNHLWGYYLFPDCYNHHYKKPGYNGSCFNVEIKRNDDLSWLWNESTALYPSIYLNTQQSPVAATLYVRNRVREAIRVSKIPDAKSPLPVFAYTRIVFTDQVLKFLSQDELVYTFGETVALGASGIVIWGTLSIMRSMKSCLLLDNYMETILNPYIINVTLAAKMCSQVLCQEQGVCIRKNWNSSDYLHLNPDNFAIQLEKGGKFTVRGKPTLEDLEQFSEKFYCSCYSTLSCKEKADVKDTDAVDVCIADGVCIDAFL
modifications: HuPH20 precursor 1-469; Mature HuPH20 36-469
B3: SPAM1-CIDA: C-terminally truncated human PH20, precursor 467 aa (SEQ ID NO:33), mature 432 aa (SEQ ID NO:85) (protein, listed as Homo sapiens)
chain 1: MGVLKFKHIFFRSFVKSSGVSQIVFTFLLIPCCLTLNFRAPPVIPNVPFLWAWNAPSEFCLGKFDEPLDMSLFSFIGSPRINATGQGVTIFYVDRLGYYPYIDSITGVTVNGGIPQKISLQDHLDKAKKDITFYMPVDNLGMAVIDWEEWRPTWARNWKPKDVYKNRSIELVQQQNVQLSLTEATEKAKQEFEKAGKDFLVETIKLGKLLRPNHLWGYYLFPDCYNHHYKKPGYNGSCFNVEIKRNDDLSWLWNESTALYPSIYLNTQQSPVAATLYVRNRVREAIRVSKIPDAKSPLPVFAYTRIVFTDQVLKFLSQDELVYTFGETVALGASGIVIWGTLSIMRSMKSCLLLDNYMETILNPYIINVTLAAKMCSQVLCQEQGVCIRKNWNSSDYLHLNPDNFAIQLEKGGKFTVRGKPTLEDLEQFSEKFYCSCYSTLSCKEKADVKDTDAVDVCIADGVCIDA
chain 2: LNFRAPPVIPNVPFLWAWNAPSEFCLGKFDEPLDMSLFSFIGSPRINATGQGVTIFYVDRLGYYPYIDSITGVTVNGGIPQKISLQDHLDKAKKDITFYMPVDNLGMAVIDWEEWRPTWARNWKPKDVYKNRSIELVQQQNVQLSLTEATEKAKQEFEKAGKDFLVETIKLGKLLRPNHLWGYYLFPDCYNHHYKKPGYNGSCFNVEIKRNDDLSWLWNESTALYPSIYLNTQQSPVAATLYVRNRVREAIRVSKIPDAKSPLPVFAYTRIVFTDQVLKFLSQDELVYTFGETVALGASGIVIWGTLSIMRSMKSCLLLDNYMETILNPYIINVTLAAKMCSQVLCQEQGVCIRKNWNSSDYLHLNPDNFAIQLEKGGKFTVRGKPTLEDLEQFSEKFYCSCYSTLSCKEKADVKDTDAVDVCIADGVCIDA
modifications: HuPH20 precursor 1-467; Mature HuPH20 36-467
B4: SPAM1-IDAF: C-terminally truncated human PH20, precursor 468 aa (SEQ ID NO:32), mature 433 aa (SEQ ID NO:84) (protein, listed as Homo sapiens)
chain 1: MGVLKFKHIFFRSFVKSSGVSQIVFTFLLIPCCLTLNFRAPPVIPNVPFLWAWNAPSEFCLGKFDEPLDMSLFSFIGSPRINATGQGVTIFYVDRLGYYPYIDSITGVTVNGGIPQKISLQDHLDKAKKDITFYMPVDNLGMAVIDWEEWRPTWARNWKPKDVYKNRSIELVQQQNVQLSLTEATEKAKQEFEKAGKDFLVETIKLGKLLRPNHLWGYYLFPDCYNHHYKKPGYNGSCFNVEIKRNDDLSWLWNESTALYPSIYLNTQQSPVAATLYVRNRVREAIRVSKIPDAKSPLPVFAYTRIVFTDQVLKFLSQDELVYTFGETVALGASGIVIWGTLSIMRSMKSCLLLDNYMETILNPYIINVTLAAKMCSQVLCQEQGVCIRKNWNSSDYLHLNPDNFAIQLEKGGKFTVRGKPTLEDLEQFSEKFYCSCYSTLSCKEKADVKDTDAVDVCIADGVCIDAF
chain 2: LNFRAPPVIPNVPFLWAWNAPSEFCLGKFDEPLDMSLFSFIGSPRINATGQGVTIFYVDRLGYYPYIDSITGVTVNGGIPQKISLQDHLDKAKKDITFYMPVDNLGMAVIDWEEWRPTWARNWKPKDVYKNRSIELVQQQNVQLSLTEATEKAKQEFEKAGKDFLVETIKLGKLLRPNHLWGYYLFPDCYNHHYKKPGYNGSCFNVEIKRNDDLSWLWNESTALYPSIYLNTQQSPVAATLYVRNRVREAIRVSKIPDAKSPLPVFAYTRIVFTDQVLKFLSQDELVYTFGETVALGASGIVIWGTLSIMRSMKSCLLLDNYMETILNPYIINVTLAAKMCSQVLCQEQGVCIRKNWNSSDYLHLNPDNFAIQLEKGGKFTVRGKPTLEDLEQFSEKFYCSCYSTLSCKEKADVKDTDAVDVCIADGVCIDAF
modifications: HuPH20 precursor 1-468; Mature HuPH20 36-468

Experiments:
[1] = Microtiter hyaluronidase activity assay with biotinylated-hyaluronic acid; format: biochemical; conditions: Table 6, 72 hour post transfection supernatant
Procedure: In Example 4, the hyaluronidase activity of truncated human PH20 hyaluronidase is determined using biotinylated hyaluronic acid. The free carboxyl groups on the glucuronic acid residues of hyaluronic acid are biotinylated, and the biotinylated hyaluronic acid substrate is covalently coupled to a microtiter plate. Following incubation with hyaluronidase, the residual biotinylated hyaluronic acid substrate is detected using an avidin-peroxidase reaction, and compared to that obtained following reaction with hyaluronidase standards of known activity. […] The sensitivity permits rapid measurement of hyaluronidase activity from cultured cells and biological samples with an inter-assay variation of less than 10%.
In this example, the human PH20 hyaluronidase carboxy-terminus deletion mutants were tested for their PH20 hyaluronidase activity using a microtiter assay with biotinylated-hyaluronic acid (biotinylated-HA or bHA). The human PH20 hyaluronidase carboxy-terminus deletion mutants were tested for hyaluronidase activity at both pH 7.4 and pH 5.5.
In short, a 4×BH 96-well plate was coated with biotinylated-HA (1.1 MDa). The 72 hour post transfection supernatant from cells transfected with human PH20 hyaluronidase carboxy-terminus deletion mutants was diluted in buffer at either pH 7.4 or pH 5.5 and added to individual wells of the plate and allowed to incubate at 37° C. for 90 minutes. The reaction was terminated by addition of 4M guanidine HCl. The wells were washed 4× with Phosphate Buffered Saline with Tween20 (PBST) to remove any digested biotinylated-HA followed by addition of streptavidin-HRP for 1 hour at room temperature. The wells were washed 4× with PBST and the plate was developed with TMB. The plate was read at 450 nm using an ELISA plate reader. Hyaluronidase activity (in Units/mL) was determined by interpolating the measured absorbance at 450 nm with a hyaluronidase reference standard curve. Full length mature human PH20 hyaluronidase and untransfected CHO cells were used as positive and negative controls.

[2] = system: CHO-S cells; experiment: Western blot analysis of PH20 expression in media and cells after transient expression; format: cell-based, Chinese Hamster; conditions: media versus cells
Procedure: The mutant PH20-HZ24 plasmids generated in Example 1 were transiently […] into CHO—S cells (derived from Chinese Hamster Ovary CHO K1 cells) using GeneJuice® (Novagen) according to the manufacturer's instructions. In short, the CHO—S cells were grown in CD CHO medium supplemented with L-glutamine. Prior to transfection, the CHO—S cells were plated in 6-well plates, with approximately 5×10^5 cells per well, and grown overnight at 37° C. with 5% CO2. The medium was then removed and the CHO—S cells were washed 2 times with 1 mL serum-free medium. GeneJuice® was mixed with serum-free media followed by the addition of 2 μg mutant-HZ24 DNA. After incubating at room temperature for 5-15 minutes, the GeneJuice®/DNA mixture was added dropwise to an individual well containing the washed CHO—S cells. After 4 hours, the medium was replaced with 1 mL CD-CHO medium supplemented with L-glutamine and the cells were incubated for 72 hours at 37° C. with 5% CO2. Following expression, the media and cells were harvested separately.
The mutant PH20-HZ24 plasmids generated in Example 1 were transiently […] into CHO—S cells using GeneJuice® (Novagen) according to the manufacturer's instructions. […]
In this example, following transient expression, as described in Example 2 above, the media and cells were harvested separately and analyzed for PH20 expression and solublility by Western blot analysis. Solubility of the C-terminus truncation mutants was determined by examining whether the expressed protein was present in the growth media or in the cells. […] Cells expressing these mutants were treated with phosphoinositol-phospholipase C (PI-PLC), which cleaves the GPI-anchor allowing the release of soluble protein into the media, and the presence of PH20 in the resulting media and cells was determined by Western blot analysis.
Non-reduced samples were run on a 4-20% Tris-Glycine gel and transferred to PVDF membrane using iBlot (Invitrogen). For the Western blot, rabbit anti-PH20 IgG (0.5 μg/mL) was used as the primary antibody and HRP-conjugated goat anti-rabbit IgG (0.1 ng/mL, Cat#DC03L, EMD) was used as the secondary antibody. Evidence of expression is determined by a band at approximately 66 kDa, corresponding to recombinant human PH20 hyaluronidase.

Row | Molecule | pH 5.5 Activity [1] [Units/ml] | pH 7.4 Activity [1] [Units/ml] | Expressed in Media [2]
1 | B1 | 0.2115 | 0 | YES
2 | B2 | 2.2365 | 2.3895 | YES
3 | B3 | 0.4725 | 0.5535 | YES
4 | B4 | 0.6278 | 0.5625 | YES
